# Measured values: the nanobody polyreactivity screen of Harvey et al. (2022)
# Experiment: yeast display, Sf9 membrane polyspecificity reagent, FACS + sequencing; frameworks hold sequencing errors
# In short: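 After 36–48 hours of galactose induction, yeast (Saccharomyces cerevisiae BJ5465) displaying a synthetic nanobody library were stained at 4 °C for 1 hour with 10% biotinylated, detergent-solubilized Sf9 membrane reagent. Streptavidin microbeads enriched the stained cells before FACS sorting into low and high (top ~1%) gates on anti-HA and streptavidin fluorescence. Each clone's polyreactivity label reflects its gate of origin.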
row,Sequence,polyreactivity (PSR sort gate)
1,QFQLVDSGGGLVQAGGSLRLSCAASGRIFSTNAMGWYRLAPGKEWELDAAINWSTGSYVLRRSVKGRFTISRDNAKNTVYLQMNSLKTEDTAVYYCAARVTVVGDYYWGQGTQVTVSS,high polyreactivity
2,QVQLVESGGGLVQAGGSLRLSCAASGSTFVHNAMGWYRQAPGKERELVAAISESGGGTYYADSVKGRFKISRDNAKNTVYLQMNSQKPEDTAVYYCAAPPAGENWRDGGGYFGQGTQVTVSS,low polyreactivity
3,QVQLVESGGGLVQAGGSLRLSCAASGRTFYRNAMGWSRQAPGKERELVAAISYRGGRTYYADSVKGRFTISRDNAKNTVYLQMNSLKPEDTAVYYCAADLRTRVPYDYWGQGTQVTVSS,high polyreactivity
4,QVQLVESGGGLVQAGGSLRLSCAASGRIFALYAMGWYRQAPGKERELVASITGGTSTNYADSVKGRFTISRDNAKNTVYLQMNSLKPEDTEVYYCAARGYTTGTRNRRYNYWGQGTQVTVSS,high polyreactivity
5,QVQLVESGGGLVQAGGSLRLSCAASGRTFNHYAMGLYRQAPGKERELVAGITISGGSTYYADSVKGRFTISRDNAKNTVYLQMNSLKPEDTAVYYCNAVYEYYRHSKWTMDYWGQGTQVTVSS,low polyreactivity
6,QVQLVESVGGLVQAGGSLRLSCAASGFIFKGNAMGWYRQAPGKERELVAAITNRGGGTYYADSVKGRFTISRDNAKNTVYLQMNSLKPEDTAVYYCAKAYTRPFHPYDYWGQGTQVTVSS,high polyreactivity
7,HVQLVESGGGLVQAGGSLPLSCAASGRTFDHYAMGWYRQAPGKEREFVAAITSGGSTYYADSVKGRFRISRDNAKNTVYLQMNSLKPVDTAVYYCNNDSSFWGYYIAQVNERDYWGQGTQVTVSS,low polyreactivity
8,QVQLVESGGRLVQAGGSLRLSCAASGRIFSINVMGWYRHAPGKERELVAAISKRGGSTYYADSVKGRFTISRDNAKNTVYLQMNSLKPEDTAVFYCAARRHYTYGNGPSRGGQMDYWGQGTQVTVSS,high polyreactivity
9,QVQLVESGGGLVQAGGSLRLSCAASGLTFSSYAMGWYRQAPGKERELVAAITRGGRTQYADSVKGRFTISRDNAKNTVYLQMNSLKPEDTAVYYCARSGNYYYWGQGTQVTVSS,high polyreactivity
10,QVQVVESGGGLVQAGGSLRLSCAASGFIFFTYAKGWYRPAPGKERELVADISSRGGSTYYADSVKGRFTISRDNAKNTVYLQMNSLKPEDTAVYYCARTRFWLRYRLFDYWGQGTQVTVSS,low polyreactivity
11,QVQLVESGGGLVQAGGSLRLSCAASGRTFYWYTMGWYRQATGKERELVAAISIGGITSYADSVKGRFTISRDNAKNTVYLQMNSLKPEDTAVYYCAAPLSYKNVKYDYWGQGTQVTVSS,low polyreactivity
12,QVEVVESGGGLVQAGGSLRLSCAASGRNFRFNAMGWYRQAPGKERELVAAISFRGGSTYYADTVKGRFTISRDNAKNTVYGQINSLKPEDPAVYYCAARARTGTYRDMYYWGQGTQVTVSS,high polyreactivity
13,QVQLVESAGGLVQAGGSLRLSCAASGITFNDNAMGGYRQAPGKERELVAAINSGNGTDYEDSVKGRFTISRDNAKNTVYLQMNSLKPEDTAVYYCATEGYVQGDLGYLYTRYAFYYWGQGTQVTVSS,low polyreactivity
14,QVQLVESGGGLVQAGGSLRLSCAASGSIFGTYAMGWYRQAPGKERELVAAISRGGRTYYADSVKGRFTISRDNAKNTVYLQMNSLKPEDTAVYYCAARTVGLRGYYYWGQGTQVTVSS,high polyreactivity
15,QVQLVESGGGLGQAGGSLRLSCAASGSIFRGYAMGWYRQAPGKERELVAAISWSGGSTYYADSVKGRFTISRDNAKNTVYLQMNSLKPEDTAVYYCAADRDVFGYWYYYWGQGTQVTVSS,high polyreactivity
16,QVQNVDSGGVLVQAGGSLRLSCEASGRIRYYAMGWYRQAPGKERELVAAISSRGGSTYYADSVKGRFTISRDNAKNTVYLLLNSLKPEDTAVYYCAKGGYWGHGTQVTVSS,high polyreactivity
17,QVQLVESGGGIVQAGGSLRLSCAASGNIFPYYDMGWYRPAPGKERELVAAITSSASGTYYADSVKGRFTISRDNAKNTVYLQMNSLKPEDTAVYYCAAGVFFFTFDYWGQGTQVTVSS,low polyreactivity
18,QVQLVESGGGLVQAGGSLRLSCAASGRIFGYNAMVWYRQAPGKERELVAAISYSGGSTYYADSVKGRFTISRDNAKNTVYLQMNSLKPEDTAVYYCATRPGYWRYEYWGQGTQVTVSS,high polyreactivity
19,QVQIVESGGGLVQAGGSLRLTCAASGLTFTGNAMGWYIQAPGKERELVAAISWSGGSKYYADSVKGRYTISRDNAKNTVYLQMNSLQPEDTAVYYCADPDARYDYWGQGTQVTVSS,high polyreactivity
20,QVQLVESGGGLVQAGGSLRLSCAASGFTFGGYAMGWYRQAPGNERELVAAISKSGGRTYYADSVKGRFTISRDNAKNTVYLQMNSLKPEDTAVYYCAASTIWHYDSWGQGTQVTVSS,high polyreactivity
21,QVQLVETGGGLVQAGGSLRLSCAASGRTFWGHAMGWYRQAPRKERELVASISSRGSSTYYADSVKGRFTISRDNAKNTVYLQMNSLKPEDTAVYYCAARTHYFPWPWYVWDYDSWGQGTQVTVSS,low polyreactivity

row,Sequence,polyreactivity (PSR sort gate)
1,QVQLVESGGGLVQAGGSLRLSCAASGFYNTMGWYRQAPRKERELVAAISTGGMTNYADSVKGRFTISRDNAKNTVYLQMNSLKPVDTAVYYCAADGYSTVYSTYDYWGQGTQVTVSS,low polyreactivity
2,QVQRVESGGGLVQAGGSLRLSCAASGSIFYSYAMGWYRQAPGKARELVATISWSGGRTNYADSVQGRFTISRDNAKNTVYLQMNSLKPEDTAVYYCAADIPPWGGDYWGQGTQVTVSS,low polyreactivity
3,QVQLVESGGGLVQAGGSLRLSCAASGFIYSGYAIGCYRQAPAKERELVDTNSGSGGSTYYADSVKGRFTISRDNAKNTVYLKMNSLKTEDTAVYYCAARQRGGYGYWGQGTQVTESS,high polyreactivity
4,QVQLVESGGGLVQAGGSLRLSCAASGRIFQKNAMGWYRQAPGKERELVAAISGSGSTTNYADSVKGRFTISRDNAKNTVYLQLNSLTPEDTAVYYCATGKRGVSGRGFRYDYWGQGTQVTVSS,high polyreactivity
5,QVQLVESGGGLVQAGGSLRLSCAASGSIFASNTMGWSRQATGKERELVAGITKIGSSTYYADSVKGRFTISRDNAKNTVYLQMNSLKPEDTEVYYCNAYGPNIYSSRYDYWGQGTQVTVSS,low polyreactivity
6,QVQLVESGGGLVQAGGSLRLSCAASGLIFGWYAMGWYRQAPGKERELVAGISGSGGITYYADSVKGRFTISRDNAKNTVYLQMNSLKPEDTAVYYCATAAASHKYGYWGQGTQVTVSS,low polyreactivity
7,QVQLVESRGGLVQAGGSLRLSCAASGSTSRTYAMGWYRQAPGKEMELVAAISSSGGRTYYADSVKGRFTISRDNAKNTVYLLMNSLKPEDTAVYYCNARTYSYRGYNYWGQGTQVTVSS,high polyreactivity
8,QVQLVESGGGLVQAGGSLRLSCAASGFILRYYAMGWYRQPPGKERELVAAISWSGGSTYYADSVMGRFTISRDNAKNTVYLQMNSLKPEDTAVYYCAADRYAILFYAEDYWGQGTQVTVSS,low polyreactivity
9,QVQLVESGGGLVQAGGSLLLSCAASGLIFSWNAMGWYRQAPGKERELVASISYSGGRTYYADSVKGRFTISRDNAKNTVYLQMNSLKPEDTAVYYCAADTNATTDPEMDYWGQGTQVTVSS,low polyreactivity
10,QVQLVESGGGLVQAGGSLRLSCAASGFIFAGYAMGWYRQAPGKERELVAGITRNGGSTYYADSVKGRFTISRDNAKITVYFQMYSLNPEDTAVYYCAATRYSFGPRRVDYWRQGTQVTVSS,high polyreactivity
11,QVQLVESGGGLVQAGGSLRLSCAASGRIFRYYDMGWYRPAPGTERELVAAITSDGSTKYADSVKGRFTISRDNAKNTVYLQMNSLKPEDTAVYYCNAEVLPTWYSPQLDYWGQGTQVTVSS,low polyreactivity
12,QVQLVESGGGLVQAGGSLRLSCAASGSIFSGYAMGWYRQAPGKERELVAAITWRAASTYYADSVKGRFTISRDNAKNTVYLQMNSLKPEDTAVYYCAKEGGPKPAFYYWGQGTQVTVSS,low polyreactivity
13,QVQLVESGGGLVQAGGSLRLSCAASGSIFDRYALGWYRQAPGKERELVAAISTGGSTNYADSVKGRFTISRDNAKNTVYLQMNSLKPEDTAVYYCAAERYWVFHGTISYKYDYWGQGSQVTVSS,low polyreactivity
14,QVQLVESGGGLVQAGGSLRLSCAASGSTFSYNMGWYRQAPGKERELVAAISGSGGSTYADSVKGRFTISRDNAKNTVYLQMNSLKPEDTAVYYCATVRYWVHEYGYWGQGTQVTVSS,high polyreactivity
15,QVQLVESGGGLVQAGGSLRLSCAASGRIFRYYSMGWYRQAPGKERELVAAISRSGSTNYADSVKGRFTISRDNAKNTVYFQMNSLKPEDTAVYYCAADSNYLYFWRRYKRMDYWGQGTQVTVSS,high polyreactivity
16,QVQLVESGGGLVQAGGSLRLSCAASGSTFPVNAMGWYRQAPGKERELVAAITYRDGDTYYADSVKGRFTISRDNAKNTVYLEMHSLKPEDTAVYYCNADVGRHGKNRHMDYWGQGTQVTVSS,low polyreactivity
17,QVQLVESGGGLVQAGGSLRLSCAASGSIFYRYAMGWYRPAPGKERELVAAITSGGTYYADSVKGRFTISRDNAKNTVYLQMNSLKPEDTAVYYCNRFSYPPSWYDYWGQGTQVTVSS,low polyreactivity
18,QVQLVESGGGLVQAGGSLRLSCAASGFTFRYYAMGRSRQAPGKERELVAAITGSGVNTYYADSVKGRFTISRDNAKNTVYLQMNSLKPEDTAVYYCAAESESDPLFDRYYWGQGTQVTVSS,high polyreactivity
19,QVQLVESGGGLVQAGGSLRLSCAASGSTFRRYTMGWYRQAPGKERELVAAISSGGSTYYADSVKGRFTISLDNAKNTVYLQMNSLKPEDTAVYYCAAKNYPLTRYWRYDYSEYYYWGQGTQVTVSS,high polyreactivity
20,QVQLVESGGGLVQAGGRLRLSCAASGSTFTHYAMGWYRQAPGKERELVAAISSGGSTYYADSVKGRFTISRDNAKNTVYLQMNSLKPEDTAVYYCAADYDWHDWWYPHDYWGQGTQVTVSS,low polyreactivity
